Values of other authors in article PMC10612106.

Biological target: MORC3 ATPase domain (Homo sapiens) (UniProt Q14149)

MORC3 CW (from UniProt Q14149)
Kd: 9 µM
